{"source": "paper PMC3392491", "target": "T1, Dda K38A (bacteriophage T4, UniProt P32270 1-439, K38A)", "T1 sequence": "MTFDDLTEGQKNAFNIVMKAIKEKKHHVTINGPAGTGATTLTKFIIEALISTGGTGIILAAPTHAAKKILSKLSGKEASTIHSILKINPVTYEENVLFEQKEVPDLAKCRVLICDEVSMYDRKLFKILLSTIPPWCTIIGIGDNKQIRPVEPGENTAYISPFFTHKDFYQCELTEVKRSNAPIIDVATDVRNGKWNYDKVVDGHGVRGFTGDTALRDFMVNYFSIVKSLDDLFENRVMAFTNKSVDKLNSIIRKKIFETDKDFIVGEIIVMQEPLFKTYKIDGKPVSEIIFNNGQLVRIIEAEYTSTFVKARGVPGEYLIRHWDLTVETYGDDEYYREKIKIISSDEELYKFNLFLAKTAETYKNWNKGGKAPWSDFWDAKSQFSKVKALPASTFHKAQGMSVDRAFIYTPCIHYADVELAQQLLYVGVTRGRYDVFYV", "assay": "X-ray crystallography", "data": [{"binder": "TTTTTTTT (ssDNA)", "note": "[dT8]", "values": [{"measurement": "binding result", "value": "binds"}]}]}
